Data: patent US20180127493A1

How the values were obtained:
[1] = target: membrane-bound TNFalpha on stably transfected CHO cells (B-220 cells); assay: FACS, mixed beads with CHO-TNFα (B220) cells, Sample 4
[2] = target: membrane-bound TNFalpha on stably transfected CHO cells (B-220 cells); assay: FACS, anti-CD19 beads with TNFalpha-transfected CHO cells (FIG. 4, middle panel)
[3] = target: membrane-bound TNFalpha on stably transfected CHO cells (B-220 cells); assay: FACS, beads with CHO-TNFα (B220) cells, Sample 2

- % bound beads [1]: 0.4%
- # Events (cells bound to anti-CD19-APC beads) [2]: 6 events
- % Parent [2]: 0.1%
- % Total [2]: 0.1%
- % bound beads [3]: 0.9%
Substance: APC labeled unrelated antibody (anti-CD19), coated on beads
